The record followed here is US20250304644A1, “PEPTIDES TRIPLE AGONISTS OF GIP, GLP-1 AND GLP-2” (BAINAN BIOTECH APS, priority 2021, published 2025).

*1 amine or outer side, *2 acyl side, *3 side chain or, on linkers, in order; H or OH if unused. Where no end group is shown, it is not given here. Side-chain parts run from the residue outwards. [ ]: non-standard residue; d: D form. The star is where a group is joined. C18 diacid = O=C(O)CCCCCCCCCCCCCCCCC(=O)*; γGlu = O=C(O)[C@H](CCC(=O)[*:2])N[*:1]; AEEA = NCCOCCOCC(=O)O; Aib = CC(C)(N)C(=O)O

Assay in all cases: cell-based or functional assay
Test [1] addresses human glucagon receptor (GCGR) (human, UniProt P47871 26-477, limits assumed).
Test [2] addresses T1, human GIPR (glucose-dependent insulinotropic polypeptide receptor) (human, UniProt P48546 22-466).
T1 sequence (looked up): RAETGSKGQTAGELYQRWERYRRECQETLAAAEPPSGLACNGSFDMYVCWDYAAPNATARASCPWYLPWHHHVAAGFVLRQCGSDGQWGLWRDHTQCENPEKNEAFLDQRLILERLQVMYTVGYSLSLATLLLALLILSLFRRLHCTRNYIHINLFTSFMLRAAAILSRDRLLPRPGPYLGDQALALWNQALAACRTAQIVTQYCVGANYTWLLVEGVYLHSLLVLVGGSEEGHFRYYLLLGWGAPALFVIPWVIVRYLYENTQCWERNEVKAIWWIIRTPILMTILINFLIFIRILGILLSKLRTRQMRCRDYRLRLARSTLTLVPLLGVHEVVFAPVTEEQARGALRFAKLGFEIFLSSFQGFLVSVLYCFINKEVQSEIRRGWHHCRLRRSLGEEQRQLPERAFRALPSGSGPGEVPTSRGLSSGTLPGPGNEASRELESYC

Test [3] has as its target T2, human GLP-2R (glucagon-like peptide-2 receptor) (human, UniProt O95838 1-553).
T2 sequence (looked up): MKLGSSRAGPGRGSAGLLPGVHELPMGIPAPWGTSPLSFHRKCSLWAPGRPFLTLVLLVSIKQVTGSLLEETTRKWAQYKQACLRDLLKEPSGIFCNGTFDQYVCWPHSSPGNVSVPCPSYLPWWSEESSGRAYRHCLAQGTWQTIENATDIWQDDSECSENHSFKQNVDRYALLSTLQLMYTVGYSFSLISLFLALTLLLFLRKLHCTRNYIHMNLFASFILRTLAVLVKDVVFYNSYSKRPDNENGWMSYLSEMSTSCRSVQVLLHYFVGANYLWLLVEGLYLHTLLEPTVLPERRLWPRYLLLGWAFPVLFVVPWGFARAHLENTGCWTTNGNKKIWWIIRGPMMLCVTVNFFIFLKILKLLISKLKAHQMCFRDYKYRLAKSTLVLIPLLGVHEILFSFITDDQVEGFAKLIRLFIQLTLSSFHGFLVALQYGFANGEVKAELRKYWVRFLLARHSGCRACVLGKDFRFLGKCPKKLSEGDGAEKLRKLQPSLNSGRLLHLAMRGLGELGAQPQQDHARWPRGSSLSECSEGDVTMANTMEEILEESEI

Test [4] addresses human GLP-1R (glucagon-like peptide-1 receptor) (human, UniProt P43220 24-463).
Test [5] concerns the target T3, Human N-terminally SNAP-tagged GIPR (human, UniProt P48546 22-466, SNAP tag labeled with Tag-Lite SNAP-Lumi4-Tb).
T3 sequence (looked up): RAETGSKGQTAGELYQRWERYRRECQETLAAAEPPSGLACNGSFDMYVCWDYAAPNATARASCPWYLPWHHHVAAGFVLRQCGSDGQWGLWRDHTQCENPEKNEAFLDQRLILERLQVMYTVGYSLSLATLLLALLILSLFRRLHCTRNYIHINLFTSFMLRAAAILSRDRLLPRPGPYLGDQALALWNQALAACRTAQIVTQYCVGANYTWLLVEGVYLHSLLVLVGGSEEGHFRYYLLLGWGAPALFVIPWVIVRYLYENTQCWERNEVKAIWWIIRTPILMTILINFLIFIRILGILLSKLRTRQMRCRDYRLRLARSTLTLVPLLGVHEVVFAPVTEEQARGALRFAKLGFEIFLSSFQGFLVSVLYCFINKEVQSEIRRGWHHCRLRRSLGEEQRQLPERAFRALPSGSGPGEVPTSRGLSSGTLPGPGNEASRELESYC

Another test concerns the target human SNAP-tagged GLP-1R (human, UniProt P43220 24-463, SNAP tag labeled with Tag-Lite SNAP-Lumi4-Tb).
A further test addresses T4, human SNAP-tagged GLP-2R (human, UniProt O95838 1-553, SNAP tag labeled with Tag-Lite SNAP-Lumi4-Tb).
T4 sequence (looked up): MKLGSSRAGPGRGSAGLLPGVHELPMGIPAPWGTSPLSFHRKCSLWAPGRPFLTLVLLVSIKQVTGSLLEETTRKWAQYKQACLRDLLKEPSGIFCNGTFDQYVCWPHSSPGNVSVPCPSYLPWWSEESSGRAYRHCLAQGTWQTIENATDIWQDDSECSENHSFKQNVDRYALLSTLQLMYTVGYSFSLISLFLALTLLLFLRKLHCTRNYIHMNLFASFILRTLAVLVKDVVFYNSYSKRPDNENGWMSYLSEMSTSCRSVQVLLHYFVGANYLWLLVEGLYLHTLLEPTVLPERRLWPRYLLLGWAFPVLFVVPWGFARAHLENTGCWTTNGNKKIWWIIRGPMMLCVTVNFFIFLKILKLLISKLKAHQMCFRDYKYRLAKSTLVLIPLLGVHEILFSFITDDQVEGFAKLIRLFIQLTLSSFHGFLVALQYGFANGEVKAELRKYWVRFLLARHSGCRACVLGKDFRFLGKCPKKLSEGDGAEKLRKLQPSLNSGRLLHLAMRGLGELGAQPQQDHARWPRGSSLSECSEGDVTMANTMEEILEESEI

Sequence of human glucagon receptor (GCGR) (P47871 26-477 limits assumed): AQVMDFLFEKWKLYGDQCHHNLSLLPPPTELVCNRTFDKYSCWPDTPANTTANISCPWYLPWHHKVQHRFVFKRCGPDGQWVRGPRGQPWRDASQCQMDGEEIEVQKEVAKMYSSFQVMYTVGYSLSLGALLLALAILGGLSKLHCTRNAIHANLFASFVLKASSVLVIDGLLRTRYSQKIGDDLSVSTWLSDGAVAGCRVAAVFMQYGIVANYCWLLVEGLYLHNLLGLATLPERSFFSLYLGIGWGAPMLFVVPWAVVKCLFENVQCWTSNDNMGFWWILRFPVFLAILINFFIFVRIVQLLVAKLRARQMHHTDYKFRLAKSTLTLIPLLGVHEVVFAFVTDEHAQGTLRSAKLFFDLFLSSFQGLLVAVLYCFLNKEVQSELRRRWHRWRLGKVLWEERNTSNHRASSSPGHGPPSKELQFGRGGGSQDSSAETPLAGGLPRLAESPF

Take H[Aib]DGTFISDYSTILDALAARDFINWLIQTKITK([AEEA-AEEA-γGlu-C18 diacid])-OH [Compound 28]: the “potency in Gs activation, measured as cAMP accumulation (-p Log EC50)” value (shortened to “potency in Gs activation … (-p Log EC50)”) in test [1] is < 7 -p Log EC50. Further, in test [2], the “EC50 (nM) GIPR” value is 0.071 nM, the “Efficacy GIPR” value came out at 119 and the “pEC50 GIPR” value came to 10.2. Moreover, in test [3], the “Efficacy GLP-2R” value was determined as 89 and the “logEC50 GLP-2R” value was 8.7. Moreover, in test [4], the “EC50 (nM) GLP-1R” value amounted to 3.98 nM, the “Efficacy GLP-1R” value is 102 and the “logEC50 GLP-1R” value was 8.4. In test [5], the “Absolute hGIPR internalization (AUC)” value stood at 21.7 AUC and the “Relative hGIPR internalization (%)” value is 59%. Further, in the test with human SNAP-tagged GLP-1R, the “Absolute hGLP-1R internalization (AUC)” value was found to be 0.96 AUC and the “Relative hGLP-1R internalization (%)” value worked out at 1.14%. In the test with human SNAP-tagged GLP-2R, the “Absolute hGLP-2R internalization (AUC)” value was found to be 12 AUC and the “Relative hGLP-2R internalization (%)” value was determined as 24.8%.
For the molecule HADGTFTSDYSIILDK([AEEA-AEEA-γGlu-C18 diacid])LAARDFINWLIQTKGKKNDWKHNITQ-OH [Compound 20], the “potency in Gs activation … (-p Log EC50)” value in test [1] is < 7 -p Log EC50. In test [3], the “EC50 (nM) GLP-2R” value is 0.3 nM, the “Efficacy GLP-2R” value is 100 and the “logEC50 GLP-2R” value was found to be 9.5. For the same molecule, in test [4], the “EC50 (nM) GLP-1R” value turned out to be 0.04 nM, the “Efficacy GLP-1R” value stood at 112 and the “logEC50 GLP-1R” value is 10.4. Further, in test [5], the “Absolute hGIPR internalization (AUC)” value came to 14.2 AUC and the “Relative hGIPR internalization (%)” value turned out to be 38%. In the test with human SNAP-tagged GLP-1R, the “Absolute hGLP-1R internalization (AUC)” value turned out to be 91.8 AUC and the “Relative hGLP-1R internalization (%)” value was 109%. Besides, in the test with human SNAP-tagged GLP-2R, the “Absolute hGLP-2R internalization (AUC)” value was 39.4 AUC and the “Relative hGLP-2R internalization (%)” value stood at 81%.
For the molecule HADGTFTSDYST[Aib]LDK([AEEA-AEEA-γGlu-C18 diacid])LAARDFINWLIQTKGKKNDWKHNITQ-OH [Compound 22], the “potency in Gs activation … (-p Log EC50)” value in test [1] is < 7 -p Log EC50. For the same molecule, in test [2], the “EC50 (nM) GIPR” value was 1.12 nM, the “Efficacy GIPR” value amounted to 93 and the “pEC50 GIPR” value is 9. Moreover, in test [3], the “EC50 (nM) GLP-2R” value turned out to be 0.6 nM, the “Efficacy GLP-2R” value stood at 93 and the “logEC50 GLP-2R” value was found to be 9.3. Moreover, in test [4], the “EC50 (nM) GLP-1R” value turned out to be 0.04 nM, the “Efficacy GLP-1R” value was determined as 116 and the “logEC50 GLP-1R” value was determined as 10.5. Also, in test [5], the “Absolute hGIPR internalization (AUC)” value is 7 AUC and the “Relative hGIPR internalization (%)” value came to 19%. In addition, in the test with human SNAP-tagged GLP-1R, the “Absolute hGLP-1R internalization (AUC)” value came out at 78.8 AUC and the “Relative hGLP-1R internalization (%)” value was 93.7%. Moreover, in the test with human SNAP-tagged GLP-2R, the “Absolute hGLP-2R internalization (AUC)” value amounted to 38 AUC and the “Relative hGLP-2R internalization (%)” value came out at 78.2%.
Take HADGTFTSDYSTILDK([AEEA-AEEA-γGlu-C18 diacid])LAARDFINWLIQTKGKKNDWKHNITQ-OH [Compound 21]: the “potency in Gs activation … (-p Log EC50)” value in test [1] is < 7 -p Log EC50. Besides, in test [2], the “EC50 (nM) GIPR” value stood at 0.398 nM, the “Efficacy GIPR” value worked out at 104 and the “pEC50 GIPR” value was 9.4. Further, in test [3], the “EC50 (nM) GLP-2R” value worked out at 0.6 nM, the “Efficacy GLP-2R” value was 104 and the “logEC50 GLP-2R” value turned out to be 9.2. In test [4], the “EC50 (nM) GLP-1R” value was found to be 0.05 nM, the “Efficacy GLP-1R” value turned out to be 122 and the “logEC50 GLP-1R” value worked out at 10.3. In test [5], the “Absolute hGIPR internalization (AUC)” value was 10.2 AUC and the “Relative hGIPR internalization (%)” value stood at 28%. Also, in the test with human SNAP-tagged GLP-1R, the “Absolute hGLP-1R internalization (AUC)” value turned out to be 94.7 AUC and the “Relative hGLP-1R internalization (%)” value came out at 113%. For the same molecule, in the test with human SNAP-tagged GLP-2R, the “Absolute hGLP-2R internalization (AUC)” value worked out at 36.3 AUC and the “Relative hGLP-2R internalization (%)” value turned out to be 74.6%.
